Laboratory results as given in article PMC7984235, “Structure‐based design of peptides that trigger Streptococcus pneumoniae cell death” (The Febs Journal, 2020).

B1: Pal-II (dsDNA)
DNA 1: AACTTAAAAGTATTTACAAACAATAACTTTTAGGTT
DNA 2: AACCTAAAAGTTATTGTTTGTAAATACTTTTAAGTT
B2: Pal-IV (dsDNA)
DNA 1: TAGGTTATAATTGTTATTAGGAA
DNA 2: TTCCTAATAACAATTATAACCTA
B3: B (dsDNA)
DNA 1: TAATAGAATAATAAGTATCACTCCTTTA
DNA 2: TAAAGGAGTGATACTTATTATTCTATTA
B4: Pal-III (dsDNA)
DNA 1: TATTTTAATAACTTAAAAGT
DNA 2: ACTTTTAAGTTATTAAAATA
B5: X (dsDNA)
DNA 1: GATTTTTTTTGATTTTTTT
DNA 2: AAAAAAATCAAAAAAAATC
B6: Streptococcus pneumoniae HigA antitoxin (natural protein)
chain: MKNNAIGSNWKDVRAELFSKEEILESDMRVAIMSELIEARNEKGISQKKLEEMSGVSQPVIARMETGKTSPQLDTVLKVLASLGKTLAVVPLEHEQV
notes: Cloned with Nde1/Xho1 into pET-21a(+); Forms a dimer within the HigB-(HigA)2-HigB heterotetramer; also called WT HigA; full-length HigA
B7: Pal-I (dsDNA)
DNA 1: AGCATCTAGGAAACTAGGTGCT
DNA 2: AGCACCTAGTTTCCTAGATGCT
B8: HigA^19–97 (domain or fragment)
chain: SKEEILESDMRVAIMSELIEARNEKGISQKKLEEMSGVSQPVIARMETGKTSPQLDTVLKVLASLGKTLAVVPLEHEQV
notes: HigA antitoxin, S. pneumoniae strain TIGR4, gene sp_1144, residues 19 to 97; Made 13C/15N-labelled for NMR; tag removed with thrombin (residues of the tag after the thrombin site may remain); also called deletion mutant HigA19-97
B9: Streptococcus pneumoniae HigB toxin (enzyme)
chain: MHNIYFYKDKNGNEPVFDYMRELTSKKGKDSRIKLNKINDYIELLSQHGTRAGEPYIKHLDAEIWELRPLRDRILFVAWMDGSFVLLHHFMKRTQKTPKREIEQAKRELADLKERGLDNEK

Columns and labels:
HigA [1] = target: T1, HigA (Streptococcus pneumoniae TIGR4, UniProt A0A0H2UQ20 1-97); assay: ITC; n=0.51; ITC: 50 mM MES pH 6.0, 100 mM NaCl, 25 C; […]; settings: protein: recombinant; tags: pET-21a(+), stop codon in reverse primer; chain copies: 2; blunt
HigB;HigA [2] = target: T2, HigB;HigA (Streptococcus pneumoniae …, UniProt A0A0H2UQ08;A0A0H2UQ20 1-121;1-97, |); assay: ITC; n=0.49; ITC: 50 mM MES pH 6.0, 100 mM NaCl, 25 C; […]; settings: protein: recombinant;recombinant; chain copies: 2;2; blunt
HigB;HigA [3] = target: T2, HigB;HigA; assay: ITC; n=0.48; ITC: 50 mM MES pH 6.0, 100 mM NaCl, 25 C; […]; settings: protein: recombinant;recombinant; chain copies: 2;2; blunt
HigB;HigA [4] = target: T2, HigB;HigA; assay: EMSA; up to 0.6 mM protein; ITC: 50 mM MES pH 6.0, 100 mM NaCl, 25 C; […]; settings: protein: recombinant;recombinant; chain copies: 2;2; blunt
HigA [5] = target: T1, HigA; assay: ITC; n=0.50; ITC: 50 mM MES pH 6.0, 100 mM NaCl, 25 C; […]; settings: protein: recombinant; tags: pET-21a(+), stop codon in reverse primer; chain copies: 2; blunt
[6] = target: the molecule itself; assay: crystal structure; HigBA complex, sitting-drop vapor diffusion at 293 K; protein 11 mg/mL in 50 mM MES pH 6.0, 500 mM NaCl; native data to 2.30 Å, SeMet SAD phasing at 2.80 Å
HigB;HigA [7] = target: T2, HigB;HigA; assay: ITC; n=0.53; ITC: 50 mM MES pH 6.0, 100 mM NaCl, 25 C; […]; settings: protein: recombinant;recombinant; chain copies: 2;2; blunt
HigA [8] = target: T1, HigA; assay: as above; settings: protein: recombinant; tags: pET-21a(+), stop codon in reverse primer; chain copies: 2; blunt
[9] = target: the molecule itself; assay: SEC; oligomeric state from a molecular weight comparison with various reference proteins (Fig. S2)
[10] = target: B6; assay: cell-based or functional assay

Binder B1 has a Kd (HigA [1]) of 2.53 ± 0.11 µM and a Kd (HigB;HigA [2]) of 0.7 ± 0.08 µM.

For B2, the Kd (HigB;HigA [3]) was 1.19 ± 0.14 µM.

B3: no binding (HigB;HigA [4]).

B4 was tested, and the Kd (HigB;HigA [3]) was 0.2 ± 0.01 µM and the Kd (HigA [5]) was 1.34 ± 0.01 µM.

B5: no binding (HigB;HigA [4]).

B6: binds [6].

In the case of B7, the Kd (HigB;HigA [7]) is reported as 0.46 ± 0.03 µM and the Kd (HigA [8]) is reported as 1.61 ± 0.02 µM.

In the case of B8, the “stoichiometry N” value [9] is reported as 2.

In the case of B9, the “ribonuclease activity (fluorescence-labeled RNA substrate) of 2 μM HigBA after addition of 10 μM HigB α2 helix-mimicking peptide, relative to free HigB” value [10] is reported as about 80%.
